B2: Phosphoglycerate kinase 1, wild-type, His-tagged recombinant (enzyme, UniProt P00558 1-417, looked up)
chain: MSLSNKLTLDKLDVKGKRVVMRVDFNVPMKNNQITNNQRIKAAVPSIKFCLDNGAKSVVLMSHLGRPDGVPMPDKYSLEPVAVELKSLLGKDVLFLKDCVGPEVEKACANPAAGSVILLENLRFHVEEEGKGKDASGNKVKAEPAKIEAFRASLSKLGDVYVNDAFGTAHRAHSSMVGVNLPQKAGGFLMKKELNYFAKALESPERPFLAILGGAKVADKIQLINNMLDKVNEMIIGGGMAFTFLKVLNNMEIGTSLFDEEGAKIVKDLMSKAEKNGVKITLPVDFVTADKFDENAKTGQATVASGIPAGWMGLDCGPESSKKYAEAVTRAKQIVWNGPVGVFEWEAFARGTKALMDEVVKATSRGCITIIGGGDTATCCAKWNTEDKVSHVSTGGGASLELLEGKVLPGVDALSNI
notes: Phosphoglycerate kinase 1 (PGK1), wild-type, cloned into the BamHI and XhoI sites of pET32a; also called PGK1; His-tagged PGK1

One test deals with Hrs (UniProt O14964). The experiment in a line: co-immunoprecipitation from cell lysate. Conditions: reference: wild type; sites S203.
In test [1] the target is B2. The experiment in a line: pull-down; competition with purified components: increasing level of an EGFR peptide (dileucine signal or mutated) added to the pull-down of PGK1 by GST-EGFR. Conditions: both partners purified.
In test [2] the target is T1, GST fused to the cytoplasmic domain of the epidermal growth factor receptor (UniProt P00533 669-1210).
T1 construct: Epidermal growth factor receptor (EGFR), cytoplasmic domain appended to the carboxy terminus of GST in pGEX-4T-1; also called GST-EGFR cytoplasmic domain; source: E. coli BL21, purified on glutathione-Sepharose 4B beads; not shown: GST, N-terminal, kept
Nature of the test: pull-down; GST-fusion proteins on glutathione beads incubated with soluble proteins (100 nM), 4 °C, 1 h, PBS with 0.05% Triton X-100 and protease inhibitors; two washes; SDS-PAGE with Coomassie staining or western blot. Conditions: both partners purified. (Immunoblotting shows a protein as a band on a membrane.)

The values below come from publication PMC10838266 (Nature Communications, 2024).

As for PGK1 (from UniProt P00558) S203A, the “binding against the reference” value with Hrs is listed as “weaker”.

B1: EGFR peptide, wild-type (contains the dileucine sorting signal) (peptide)
peptide: PNQALLRILKETE
notes: Stretch of the juxta-membrane region of the epidermal growth factor receptor (EGFR) with the dileucine sorting signal; also called peptide that contains the relevant dileucine motif; source: synthetic peptide (core facility)
Consider B1, for which the binding result in test [1] is listed as “binds”.

Take B2: the binding result in test [2] is recorded as “binds”.
